Columns and labels:
[1] = biological target: NirD (purified, untagged) (Escherichia coli) (UniProt P0A9I8); test: BLI; biotinylated NirD or NirD^E50K on streptavidin biosensors, RelA^N-terminal as analyte (up to 30 µM); BLItz, 25°C; 50 mM Tris-HCl pH 8.0, 500 mM NaCl, 500 mM KCl, 2 mM β-mercaptoethanol, 2% glycerol; KD from steady-state responses, one site model
[2] = biological target: T1, RelA^N-terminal (purified RelA catalytic domains) (Escherichia coli); test: ITC; RelA^N-terminal (30 µM) in the cell, NirD or NirD^E50K (300 µM) in the syringe; 25°C; 50 mM Tris-HCl pH 8.0, 500 mM NaCl, 500 mM KCl, 2 mM β-mercaptoethanol, 2% glycerol; One Set of Sites model
T1 sequence (P0AG20 whole entry, looked up): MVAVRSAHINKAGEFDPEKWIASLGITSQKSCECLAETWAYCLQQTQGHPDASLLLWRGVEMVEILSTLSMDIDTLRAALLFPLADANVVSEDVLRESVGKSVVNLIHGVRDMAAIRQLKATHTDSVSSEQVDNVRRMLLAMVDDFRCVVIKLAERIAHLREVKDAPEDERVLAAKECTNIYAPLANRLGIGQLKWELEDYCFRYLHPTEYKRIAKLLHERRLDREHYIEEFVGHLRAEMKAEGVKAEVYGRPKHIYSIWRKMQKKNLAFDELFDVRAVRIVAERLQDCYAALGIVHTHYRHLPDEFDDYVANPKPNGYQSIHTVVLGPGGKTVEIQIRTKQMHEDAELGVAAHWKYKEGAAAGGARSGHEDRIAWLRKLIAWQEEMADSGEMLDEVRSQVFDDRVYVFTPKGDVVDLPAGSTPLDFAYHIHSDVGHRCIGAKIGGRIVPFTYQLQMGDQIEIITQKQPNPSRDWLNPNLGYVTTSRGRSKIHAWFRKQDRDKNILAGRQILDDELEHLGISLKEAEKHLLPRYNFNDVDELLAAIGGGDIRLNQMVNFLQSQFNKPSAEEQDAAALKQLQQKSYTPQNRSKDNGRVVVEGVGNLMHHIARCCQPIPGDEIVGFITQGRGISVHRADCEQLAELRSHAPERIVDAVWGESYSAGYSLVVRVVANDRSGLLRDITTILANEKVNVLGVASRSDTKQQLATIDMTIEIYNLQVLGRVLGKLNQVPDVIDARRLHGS

[3] = biological target: T1, RelA^N-terminal (purified RelA catalytic domains) (Escherichia coli)

RelA^N-terminal (purified RelA catalytic domains) (domain or fragment)
Kd [1]: 550 nM

B1: NirD (purified, untagged) (natural protein)
chain: MSQWKDICKIDDILPETGVCALLGDEQVAIFRPYHSDQVFAISNIDPFFESSVLSRGLIAEHQGELWVASPLKKQRFRLSDGLCMEDEQFSVKHYEARVKDGVVQLRG
modifications: biotinylated with EZ-Link NHS-PEG4-Biotin for the biolayer interferometry only
Kd [2]: 340 nM | dH [2]: -3.63 kcal/mol | in vitro pppGpp synthesis by 1 µM RelA^N-terminal with 4 µM NirD: percent of GTP converted to pppGpp within 60 min (80% without NirD) [3]: 30%

From publication PMC8321558
